B1: ALK2 (receptor, human, UniProt Q04771 21-123, looked up)
chain: MEDEKPKVNPKLYMCVCEGLSCGNEDHCEGQQCFSSLSINDGFHVYQKGCFQVYEQGKMTCKTPPSPGQAVECCQGDWCNRNITAQLPTKGKSFPGTQNFHLE
notes: Member of the printed range ALK2-ALK7; also called type I receptor ALK2
B2: ALK3 (receptor, human, UniProt P36894 24-152, looked up)
chain: QNLDSMLHGTGMKSDSDQKKSENGVTLAPEDTLPFLKCYCSGHCPDDAINNTCITNGHCFAIIEEDDQGETTLASGCMKYEGSDFQCKDSPKAQLRRTIECCRTNLCNQYLQPTLPPVVIGPFFDGSIR
notes: Member of the printed range ALK2-ALK7; also called type I receptor ALK3
B3: ALK4 (receptor, human, UniProt P36896 24-126, looked up)
chain: SGPRGVQALLCACTSCLQANYTCETDGACMVSIFNLDGMEHHVRTCIPKVELVPAGKPFYCLSSEDLRNTHCCYTDYCNRIDLRVPSGHLKEPEHPSMWGPVE
notes: Member of the printed range ALK2-ALK7; also called type I receptor ALK4
B4: ALK5 (receptor, human, UniProt P36897 34-126, looked up)
chain: LQCFCHLCTKDNFTCVTDGLCFVSVTETTDKVIHNSMCIAEIDLIPRDRPFVCAPSSKTGSVTTTYCCNQDHCNKIELPTTVKSSPGLGPVEL
notes: Member of the printed range ALK2-ALK7; also called type I receptor ALK5
B5: ALK6 (receptor, human, UniProt O00238 14-126, looked up)
chain: KKEDGESTAPTPRPKVLRCKCHHHCPEDSVNNICSTDGYCFTMIEEDDSGLPVVTSGCLGLEGSDFQCRDTPIPHQRRSIECCTERNECNKDLHPTLPPLKNRDFVDGPIHHR
notes: Member of the printed range ALK2-ALK7; also called type I receptor ALK6
B6: ALK7 (receptor, human, UniProt Q8NER5 21-113, looked up)
chain: ELSPGLKCVCLLCDSSNFTCQTEGACWASVMLTNGKEQVIKSCVSLPELNAQVFCHSSNNVTKTECCFTDFCNNITLHLPTASPNAPKLGPME
notes: Member of the printed range ALK2-ALK7; also called type I receptor ALK7
B7: activin receptor IIB (receptor, human, UniProt Q13705 19-134, looked up)
chain: SGRGEAETRECIYYNANWELERTNQSGLERCEGEQDKRLHCYASWRNSSGTIELVKKGCWLDDFNCYDRQECVATEENPQVYFCCCEGNFCNERFTHLPEAGGPEVTYEPPPTAPT
notes: also called ActRIIB
B8: bone morphogenetic protein receptor II (receptor, human, UniProt Q13873 27-150, looked up)
chain: SQNQERLCAFKDPYQQDLGIGESRISHENGTILCSKGSTCYGLWEKSKGDINLVKQGCWSHIGDPQECHYEECVVTTTPPSIQNGTYRFCCCSTDLCNVNFTENFPPPDTTPLSPPHSFNRDET
notes: also called BMPRII
B9: TGF-β receptor II (receptor, human, UniProt P37173 24-159, looked up)
chain: IPPHVQKSVNNDMIVTDNNGAVKFPQLCKFCDVRFSTCDNQKSCMSNCSITSICEKPQEVCVAVWRKNDENITLETVCHDPKLPYHDFILEDAASPKCIMKEKKKPGETFFMCSCSSDECNDNIIFSEEYNTSNPD
B10: hENG(258-346)-hFc (Fc fusion)
chain: YVSWLIDANHNMQIWTTGEYSFKIFPEKNIRGFKLPDTPQGLLGEARMLNASIVASFVELPLASIVSLHASSCGGRLQTSPAPIQTTPP
notes: not shown: human IgG1 Fc domain
B11: hENG(360-457)-hFc (Fc fusion)
chain: QTKCADDAMTLVLKKELVAHLKCTITGLTFWDPSCEAEDRGDKFVLRSAYSSCGMQVSASMISNEAVVNILSSSSPQRKKVHCLNMDSLSFQLGLYLS
notes: Expressed in COS cells, not purified; not shown: human IgG1 Fc domain
B12: hENG(360-437)-hFc (Fc fusion)
chain: QTKCADDAMTLVLKKELVAHLKCTITGLTFWDPSCEAEDRGDKFVLRSAYSSCGMQVSASMISNEAVVNILSSSSPQR
notes: as for B11
B13: human TGF-β2 (ligand, UniProt P61812 303-414, looked up)
chain: ALDAAYCFRNVQDNCCLRPLYIDFKRDLGWKWIHEPKGYNANFCAGACPYLWSSDTQHSRVLSLYNTINPEASASPCCVSQDLEPLTILYYIGKTPKIEQLSNMIVKSCKCS
notes: also called hTGF-β2
B14: human TGF-β3 (ligand, UniProt P10600 301-412, looked up)
chain: ALDTNYCFRNLEENCCVRPLYIDFRQDLGWKWVHEPKGYYANFCSGPCPYLRSADTTHSTVLGLYNTLNPEASASPCCVPQDLEPLTILYYVGRTPKVEQLSNMVVKSCKCS
notes: also called hTGF-β3
B15: human BMP-2 (ligand, UniProt P12643 283-396, looked up)
chain: QAKHKQRKRLKSSCKRHPLYVDFSDVGWNDWIVAPPGYHAFYCHGECPFPLADHLNSTNHAIVQTLVNSVNSKIPKACCVPTELSAISMLYLDENEKVVLKNYQDMVVEGCGCR
notes: also called hBMP-2
B16: human activin A (ligand, UniProt P08476 311-426, looked up)
chain: GLECDGKVNICCKKQFFVSFKDIGWNDWIIAPSGYHANYCEGECPSHIAGTSGSSLSFHSTVINHYRMRGHSPFANLKSCCVPTKLRPMSMLYYDDGQNIIKKDIQNMIVEECGCS
notes: also called hActivin A
B17: hBMP-2/7 (ligand, human)
chain 1: B15 chain
chain 2: STGSKQRSQNRSKTPKNQEALRMANVAENSSSDQRQACKKHELYVSFRDLGWQDWIIAPEGYAAYYCEGECAFPLNSYMNATNHAIVQTLVHFINPETVPKPCCAPTQLNAISVLYFDDSSNVILKKYRNMVVRACGCH
notes: read as the BMP-2/BMP-7 heterodimer
B18: human BMP-7 (ligand, UniProt P18075 293-431, looked up)
chain: B17 chain 2
notes: also called hBMP-7
B19: hENG(26-586) (R&D Systems, catalog #1097-EN) (receptor)
chain: ETVHCDLQPVGPERGEVTYTTSQVSKGCVAQAPNAILEVHVLFLEFPTGPSQLELTLQASKQNGTWPREVLLVLSVNSSVFLHLQALGIPLHLAYNSSLVTFQEPPGVNTTELPSFPKTQILEWAAERGPITSAAELNDPQSILLRLGQAQGSLSFCMLEASQDMGRTLEWRPRTPALVRGCHLEGVAGHKEAHILRVLPGHSAGPRTVTVKVELSCAPGDLDAVLILQGPPYVSWLIDANHNMQIWTTGEYSFKIFPEKNIRGFKLPDTPQGLLGEARMLNASIVASFVELPLASIVSLHASSCGGRLQTSPAPIQTTPPKDTCSPELLMSLIQTKCADDAMTLVLKKELVAHLKCTITGLTFWDPSCEAEDRGDKFVLRSAYSSCGMQVSASMISNEAVVNILSSSSPQRKKVHCLNMDSLSFQLGLYLSPHFLQASNTIEPGQQSFVQVRVSPSVSEFLLQLDSCHLDLGPEGGTVELIQGRAAKGNCVSLLSPSPEGDPRFSFLLHFYTVPIPKTGTLSCTVALRPKTGSQDQEVHRTVFMRLNIISPDLSGCTSKG
notes: also called soluble human ENG extracellular domain

The binders below were run against B19 (assay: SPR).
B1: no binding. B2: no binding. B3: no binding. B4: no binding. B5: no binding. B6: no binding. B7: no binding. B8: no binding. B9: no binding.

Each binder was assayed against T1, human BMP-9 (human, UniProt Q9UK05 320-429) (assay: SPR, captured hENG-hFc, soluble ligand).
T1 construct: also called hBMP-9
T1 sequence (looked up): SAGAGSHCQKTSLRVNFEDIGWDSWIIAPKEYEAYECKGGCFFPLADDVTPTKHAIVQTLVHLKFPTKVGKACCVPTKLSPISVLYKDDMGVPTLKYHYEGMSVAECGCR
B10: no binding (tested: 100 nM). B11: no binding (tested: 100 nM). B12: no binding (tested: 100 nM).

Each binder was assayed against T2, human BMP-10 (human, UniProt O95393 317-424) (assay: SPR, captured hENG-hFc, soluble ligand).
T2 construct: also called hBMP-10
T2 sequence (looked up): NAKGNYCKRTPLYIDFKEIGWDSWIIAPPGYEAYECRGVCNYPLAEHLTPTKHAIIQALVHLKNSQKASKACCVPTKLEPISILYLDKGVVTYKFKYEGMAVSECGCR
B10: no binding (tested: 100 nM). B11: no binding (tested: 100 nM). B12: no binding (tested: 100 nM).

The binders below were run against T3, mENG(27-581)-hFc (R&D Systems, catalog #1320-EN) (murine; human, UniProt Q63961 27-581) (assay: SPR (Biacore), captured construct, soluble ligand).
T3 construct: Bought protein; not shown: Fc domain of human IgG1
T3 sequence: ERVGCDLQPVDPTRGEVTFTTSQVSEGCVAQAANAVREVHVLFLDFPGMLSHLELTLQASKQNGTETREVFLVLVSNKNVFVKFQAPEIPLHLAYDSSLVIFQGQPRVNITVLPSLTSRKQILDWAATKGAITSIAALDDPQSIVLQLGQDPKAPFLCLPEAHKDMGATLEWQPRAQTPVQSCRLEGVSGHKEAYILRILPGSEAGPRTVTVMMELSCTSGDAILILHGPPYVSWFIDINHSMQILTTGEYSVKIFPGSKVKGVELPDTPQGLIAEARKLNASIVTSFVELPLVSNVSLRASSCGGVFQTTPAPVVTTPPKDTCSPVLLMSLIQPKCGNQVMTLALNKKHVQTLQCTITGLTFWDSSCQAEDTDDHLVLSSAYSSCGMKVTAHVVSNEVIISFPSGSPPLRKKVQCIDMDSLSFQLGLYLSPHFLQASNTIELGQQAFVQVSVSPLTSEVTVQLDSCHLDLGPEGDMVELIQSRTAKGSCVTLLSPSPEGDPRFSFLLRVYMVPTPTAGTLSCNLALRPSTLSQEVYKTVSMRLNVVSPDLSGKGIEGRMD
B13: no binding (tested: 10 nM). B14: no binding (tested: 10 nM). B15: no binding (tested: 25 nM). B16: no binding (tested: 25 nM). B17: no binding (tested: 25 nM). B18: no binding (tested: 25 nM).

The binders below were run against B19 (assay: SPR (Biacore), immobilized construct, soluble ligand).
B13: no binding (tested: 25 nM). B14: no binding (tested: 25 nM). B15: no binding (tested: 25 nM). B16: no binding (tested: 25 nM). B17: no binding (tested: 25 nM). B18: no binding (tested: 25 nM).

Each binder was assayed against T1, human BMP-9 (assay: SPR competition: hENG(26-586) premixed with BMP-9, binding to captured ALK1-hFc).
Excerpt: (§1) BMP-9 and BMP-10 are high-affinity ligands at the type I receptor ALK1 (activin receptor-like kinase 1). […] Similar results were obtained with BMP-10 (FIG. 21).
B19 showed an IC50 of under 10 nM.

What follows are binders tested against T1, human BMP-9 (assay: SPR competition: hENG(26-586) 0-50 nM premixed with 10 nM BMP-9, binding to captured ALK1).
Excerpt: as §1
For B19, the IC50 was 9.7 nM.

Each binder was assayed against T2, human BMP-10 (assay: SPR competition: hENG(26-586) 0-50 nM premixed with 10 nM BMP-10, binding to captured ALK1).
Excerpt: as §1
B19 gave an IC50 of 6.3 nM.
